The target in this test is T1, ADAM10 (immunoprecipitated with anti-ADAM10 from HEK293T cells), O14672.
T1 chain: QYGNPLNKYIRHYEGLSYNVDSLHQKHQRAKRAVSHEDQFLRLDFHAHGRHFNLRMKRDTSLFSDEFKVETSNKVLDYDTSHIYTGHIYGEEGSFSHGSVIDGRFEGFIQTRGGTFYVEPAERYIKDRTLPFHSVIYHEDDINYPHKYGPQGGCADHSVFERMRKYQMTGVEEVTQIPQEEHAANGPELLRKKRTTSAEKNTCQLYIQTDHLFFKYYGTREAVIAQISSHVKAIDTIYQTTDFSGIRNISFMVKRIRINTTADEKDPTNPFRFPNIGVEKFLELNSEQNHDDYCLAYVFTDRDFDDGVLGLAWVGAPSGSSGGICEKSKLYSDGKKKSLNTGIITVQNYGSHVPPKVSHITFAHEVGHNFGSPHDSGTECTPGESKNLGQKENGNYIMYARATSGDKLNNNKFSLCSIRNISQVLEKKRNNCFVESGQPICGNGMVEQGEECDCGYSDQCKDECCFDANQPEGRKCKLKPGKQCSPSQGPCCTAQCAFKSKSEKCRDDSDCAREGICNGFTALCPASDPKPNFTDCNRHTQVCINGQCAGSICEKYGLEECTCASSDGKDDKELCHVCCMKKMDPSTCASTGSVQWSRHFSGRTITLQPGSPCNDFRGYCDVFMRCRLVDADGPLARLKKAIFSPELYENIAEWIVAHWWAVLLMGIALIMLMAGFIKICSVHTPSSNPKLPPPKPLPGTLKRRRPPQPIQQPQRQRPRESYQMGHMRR
Briefly: co-immunoprecipitation (ADAM10 IP, EphA3 immunoblot, quantified). To be noted: chain shown with the change; ephrin-A5-treated EphA3-transfected cells; n = 2 experiments; parent: est. 1.1; read off a plot; scale: ratio of EphA3 co-IP/lysate, EphA3[2YE] as internal reference. (In general: A western blot detects proteins with antibodies after separation by electrophoresis.)

B1: Wt EphA3-GFP, P29320 Y596E; Y602E; K653M (protein)
chain: ELIPQPSNEVNLLDSKTIQGELGWISYPSHGWEEISGVDEHYTPIRTYQVCNVMDHSQNNWLRTNWVPRNSAQKIYVELKFTLRDCNSIPLVLGTCKETFNLYYMESDDDHGVKFREHQFTKIDTIAADESFTQMDLGDRILKLNTEIREVGPVNKKGFYLAFQDVGACVALVSVRVYFKKCPFTVKNLAMFPDTVPMDSQSLVEVRGSCVNNSKEEDPPRMYCSTEGEWLVPIGKCSCNAGYEERGFMCQACRPGFYKALDGNMKCAKCPPHSSTQEDGSMNCRCENNYFRADKDPPSMACTRPPSSPRNVISNINETSVILDWSWPLDTGGRKDVTFNIICKKCGWNIKQCEPCSPNVRFLPRQFGLTNTTVTVTDLLAHTNYTFEIDAVNGVSELSSPPRQFAAVSITTNQAAPSPVLTIKKDRTSRNSISLSWQEPEHPNGIILDYEVKYYEKQEQETSYTILRARGTNVTISSLKPDTIYVFQIRARTAAGYGTNSRKFEFETSPDSFSISGESSQVVMIAISAAVAIILLTVVIYVLIGRFCGYKSKHGADEKRLHFGNGHLKLPGLRTEVDPHTEEDPTQAVHEFAKELDATNISIDKVVGAGEFGEVCSGRLKLPSKKEISVAIMTLKVGYTEKQRRDFLGEASIMGQFDHPNIIRLEGVVTKSKPVMIVTEYMENGSLDSFLRKHDAQFTVIQLVGMLRGIASGMKYLSDMGYVHRDLAARNILINSNLVCKVSDFGLSRVLEDDPEAAYTTRGGKIPIRWTSPEAIAYRKFTSASDVWSYGIVLWEVMSYGERPYWEMSNQDVIKAVDEGYRLPPPMDCPAALYQLMLDCWQKDRNNRPKFEQIVSILDKLIRNPGSLKIITSAAARPSNLLLDQSNVDITTFRTTGDWLNGVWTAHCKEIFTGVEYSSCDTIAKISTDDMKKVGVTVVGPQKKIISSIKALETQSKNGPVPV
Regarding B1, the response amounted to 0.42.

B2: Wt EphA3-GFP, P29320 Y596E; Y602E (protein)
chain: ELIPQPSNEVNLLDSKTIQGELGWISYPSHGWEEISGVDEHYTPIRTYQVCNVMDHSQNNWLRTNWVPRNSAQKIYVELKFTLRDCNSIPLVLGTCKETFNLYYMESDDDHGVKFREHQFTKIDTIAADESFTQMDLGDRILKLNTEIREVGPVNKKGFYLAFQDVGACVALVSVRVYFKKCPFTVKNLAMFPDTVPMDSQSLVEVRGSCVNNSKEEDPPRMYCSTEGEWLVPIGKCSCNAGYEERGFMCQACRPGFYKALDGNMKCAKCPPHSSTQEDGSMNCRCENNYFRADKDPPSMACTRPPSSPRNVISNINETSVILDWSWPLDTGGRKDVTFNIICKKCGWNIKQCEPCSPNVRFLPRQFGLTNTTVTVTDLLAHTNYTFEIDAVNGVSELSSPPRQFAAVSITTNQAAPSPVLTIKKDRTSRNSISLSWQEPEHPNGIILDYEVKYYEKQEQETSYTILRARGTNVTISSLKPDTIYVFQIRARTAAGYGTNSRKFEFETSPDSFSISGESSQVVMIAISAAVAIILLTVVIYVLIGRFCGYKSKHGADEKRLHFGNGHLKLPGLRTEVDPHTEEDPTQAVHEFAKELDATNISIDKVVGAGEFGEVCSGRLKLPSKKEISVAIKTLKVGYTEKQRRDFLGEASIMGQFDHPNIIRLEGVVTKSKPVMIVTEYMENGSLDSFLRKHDAQFTVIQLVGMLRGIASGMKYLSDMGYVHRDLAARNILINSNLVCKVSDFGLSRVLEDDPEAAYTTRGGKIPIRWTSPEAIAYRKFTSASDVWSYGIVLWEVMSYGERPYWEMSNQDVIKAVDEGYRLPPPMDCPAALYQLMLDCWQKDRNNRPKFEQIVSILDKLIRNPGSLKIITSAAARPSNLLLDQSNVDITTFRTTGDWLNGVWTAHCKEIFTGVEYSSCDTIAKISTDDMKKVGVTVVGPQKKIISSIKALETQSKNGPVPV
On to B2, for which the response is 1.
